Tested on: K4 kissing-loop RNA reporter
Test: apparent KD of K4 kissing-loop reporter; higher = weaker reporter binding
Settings: Eterna round: R107
Description: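 RNA-MaP round R107: designed RNA switches with theophylline, tryptophan, arginine or FMN aptamers are transcribed on-chip within common flanks. They are titrated with a labelled K4 kissing-loop RNA reporter in RNA-MaP buffer (100 mM Tris pH 7.5, 80 mM KCl, 4 mM MgCl2), without ligand or with the indicated ligand. Median apparent KD per design.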

[1] = input ligand: theophylline 20 uM
[2] = input ligand: tryptophan 2.4 mM
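Further: bound reporter read as fluorescence of individual clusters on recovered sequencing chips by microscopy, with normalized cluster intensities fitted with a binding model.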

Sequence | apparent KD of K4 kissing-loop reporter (input ligand: FMN 200 uM) | apparent KD of K4 kissing-loop reporter (input ligand: arginine 13.2 mM) | apparent KD of K4 kissing-loop reporter (input ligand: none) | apparent KD of K4 kissing-loop reporter [1] | apparent KD of K4 kissing-loop reporter [2]
UGAUACCAGACUGAUACCAGCCAGUGAUGUUGGCUAAGCCAAAUAGGAGUCAAAGACUCCGGCCCUUGGCAGCAGUCUGGUAUCU [TheoBX 5 #SwitchBubble #StaticStem] | 0.127 µM | 0.117 µM | 0.122 µM | 0.124 µM | 0.127 µM
GGAUAGGAUAGAGGAUAUGGCUUACACAGAAAUAACUUGUUGUGUUUAUCCAUAGGGAGUGAUGUUCCAGAAGGCUGUCCUAUCG [MatMod 19 - Jieux - Exclusion - FMN B] | 0.743 µM | 0.197 µM | 0.21 µM | 0.232 µM | 0.161 µM
UACGCUUACUUGCGCGGUCCGAUUAACGAUACCAGCGAAGAAGCCCGCCCUUGGCAGCGUUAUAGAGUGAUGUUCACGGAGAUUA [theeternabot_sameState_KL_Theo_A_12] | 1.1 µM | 0.872 µM | 0.989 µM | 1.07 µM | 0.874 µM
UAACUUGCAGUGAUGUUGCAAGAACUGGAUACCAGCAUGGAAACAUGCCCUUGGCAGCCAGAAGGUAUCCUCUUGCAUAGAUACU [Design3] | 0.216 µM | 0.178 µM | 0.195 µM | 0.22 µM | 0.192 µM
UAUUAAGUGACGGCCGCCACUAUGGUGAUUUAUUUGUUUGAGUGAUGUUUUGAUGUUUGAUUUUGUAGGACCGGGUUAUGUGUUA [ttttcmullin] | 0.969 µM | 0.641 µM | 0.735 µM | 0.752 µM | 0.597 µM
UGUACUAUUGUGAGUGAUGUUCACUUCGAUACCAGCAGAGCGAUCUGCCCUUGGCAGCGAGUUAACUGCCGAAAGGCAAGGAUUA [Theo B SS t9] | 0.535 µM | 0.528 µM | 0.546 µM | 0.546 µM | 0.378 µM
CGUUUAUAGCAGGAUACCAGUACCCAUUAUGUACGUUAAUAGUAGAGUGAUGUUCUAAAGUACCCUUGGCAGCUUCCCGUGACCC [ExTheophylB.Y] | 0.119 µM | 0.183 µM | 0.14 µM | 0.176 µM | 0.0947 µM
AUGAGGAGCAGUGAUCCUAUUCCAUGGGAAGGAGCGUAGGAUACUACAGGUAGGUCGCCCAGUGAUGUUGGGCGCGUGCUCUUGG [Zaqua] | 0.159 µM | 0.133 µM | 0.133 µM | 0.178 µM | 0.146 µM
UCCUUUGUUGCCAGUGAUGUUGGACAGGAAGGAGCGGGCAUAAGCCCAGGUAGGUCGCCUGUCAACUUUCUUAUAGCCCUAAGGU [KL-XArg-A16] | 0.343 µM | 0.329 µM | 0.372 µM | 0.323 µM | 0.337 µM
GACACACUUUCAGGUGUCCAGUGACUGGAUACCAGCAUGGAAACAUGCCCUUGGCAGCCAGAACUGGAAGUGAUGUUUCCAGUAA [Theo A Mod Design7 (Brourd)] | 0.38 µM | 0.241 µM | 0.346 µM | 0.262 µM | 0.33 µM
UUAGUCUAGAGAAGGAGCGAGUGAUGUUUGCUAAGCUAUAUAAUAAAAUAUAGCAAAUUUACUCAGGUAGGUCGCUCUAGACAUU [AK3 Exc Arginine B] | 0.153 µM | 0.122 µM | 0.098 µM | 0.149 µM | 0.0742 µM
AAACUUGCAGUGAUGUUGCAAGUAGGUGAUACCAGCAUCGAAAGAUGCCCUUGGCAGCACCAUCACUGUAAGUAGGUGCUGUCAA [(H1)-(H2)-(T1)-(T2)-(H)'-(T)'_Design5] | 0.0993 µM | 0.0885 µM | 0.105 µM | 0.111 µM | 0.103 µM
UCCUGCAAUCGACCACGAAAGUGGUUCGAUACCAGAGUCGAAAGACUCCCUUGGCAGCGAGUGAUGUUCGAGCAGGUAAAAUAAA | 0.438 µM | 0.436 µM | 0.567 µM | 0.467 µM | 0.472 µM
GUUACGCAUGGAAGGAGCGCAGGCUCAACAAAUAGCUCAGUGAUGUUGAGCAAAUUAAAACUGCAGGUAGGUCGCCAUGUGUAAC [Ex Arginine B K4 22] | 0.399 µM | 0.399 µM | 0.508 µM | 0.371 µM | 0.422 µM
AGACUACCACACUGUCAAUAGACAGUGUACUAGGAUAUGCUGAUAAGCAGAAGGAGUGAUGUUCCUAGGUAGUCAAUAAAAUAAU [FmnAX 13 U28] | 0.439 µM | 0.443 µM | 0.494 µM | 0.629 µM | 0.574 µM
AACUGUCAAGGACAACAUUACUGAAGUGAUACCAGCAUCGAAAGAUGCCCUUGGCAGCACUGACUUGCAGUGAUGUUGCAAGUAA [BrourdMod 7 - Jieux - Exclusion - Theophylline A] | 0.211 µM | 0.165 µM | 0.194 µM | 0.2 µM | 0.194 µM
